# Results reported in patent publication US10081665B2, “Peptides and combination of peptides for use in immunotherapy against various tumors” (immatics biotechnologies GmbH, priority 2015, dated 2018).
# Target: HLA-A*02:01 (Homo sapiens, UniProt P04439, D140Y/D185E/D98H/E176V/E277Q/G131W/G231S/I119V/I121R/I166T/I218V/L300P/L318F/N151K/N90K/P208A/P217A/Q86G/Q94H/R138H/R169H/T345S)
# Assay: MHC binding assay (UV-ligand exchange, beta2m ELISA)
# Conditions: binding to HLA-A*02:01, β2m ELISA
# Description: Candidate peptides for T cell based therapies according to the present invention were further tested for their MHC binding capacity (affinity). The individual peptide-MHC complexes were produced by UV-ligand exchange, where a UV-sensitive peptide is cleaved upon UV-irradiation, and exchanged with the peptide of interest as analyzed. Only peptide candidates that can effectively bind and stabilize the peptide-receptive MHC molecules prevent dissociation of the MHC complexes. To determine the yield of the exchange reaction, an ELISA was performed based on the detection of the light chain (β2m) of stabilized MHC complexes. The assay was performed as generally described in Rodenko et al. (Rodenko et al., 2006).
# 96 well MAXISorp plates (NUNC) were coated over night with 2 ug/ml streptavidin in PBS at room temperature, washed 4× and blocked for 1 h at 37° C. in 2% BSA containing blocking buffer. Refolded HLA-A*02:01/MLA-001 monomers served as standards, covering the range of 15-500 ng/ml. Peptide-MHC monomers of the UV-exchange reaction were diluted 100 fold in blocking buffer. Samples were incubated for 1 h at 37° C., washed four times, incubated with 2 ug/ml HRP conjugated anti-82m for 1 h at 37° C., washed again and detected with TMB solution that is stopped with […]. Absorption was measured at 450 nm. Candidate peptides that show a high exchange yield (preferably higher than 50%, most preferred higher than 75%) are generally preferred for a generation and production of antibodies or fragments thereof, and/or T cell receptors or fragments thereof, as they show sufficient avidity to the MHC molecules and prevent dissociation of the MHC complexes.
substance,measurement,value
256 (FLNDIFERI; listed as Homo sapiens) [compound 256],"Peptide exchange (MHC class I binding score, peptide exchange yield)",+++ (≥50 = +++)
132 (ALLNNVIEV; listed as Homo sapiens) [compound 132],"Peptide exchange (MHC class I binding score, peptide exchange yield)",+++ (≥50 = +++)
272 (FVMEGEPPKL; listed as Homo sapiens) [compound 272],"Peptide exchange (MHC class I binding score, peptide exchange yield)",++ (≥20% = ++)
247 (NLLIDDKGTIKL; listed as Homo sapiens) [compound 247],"Peptide exchange (MHC class I binding score, peptide exchange yield)",++ (≥20% = ++)
16 (SLADLSLLL; listed as Homo sapiens) [compound 16],"Peptide exchange (MHC class I binding score, peptide exchange yield)",+++ (≥50 = +++)
85 (KLLDKPEQFL; listed as Homo sapiens) [compound 85],"Peptide exchange (MHC class I binding score, peptide exchange yield)",++ (≥20% = ++)
115 (ILHGEVNKV; listed as Homo sapiens) [compound 115],"Peptide exchange (MHC class I binding score, peptide exchange yield)",++ (≥20% = ++)
269 (GLLDCPIFL; listed as Homo sapiens) [compound 269],"Peptide exchange (MHC class I binding score, peptide exchange yield)",++++ (≥75% = ++++)
122 (SIIDTELKV; listed as Homo sapiens) [compound 122],"Peptide exchange (MHC class I binding score, peptide exchange yield)",+++ (≥50 = +++)
91 (LLPSIFLMV; listed as Homo sapiens) [compound 91],"Peptide exchange (MHC class I binding score, peptide exchange yield)",++ (≥20% = ++)
266 (FLLDKPQDL; listed as Homo sapiens) [compound 266],"Peptide exchange (MHC class I binding score, peptide exchange yield)",++ (≥20% = ++)
84 (FLLEREQLL; listed as Homo sapiens) [compound 84],"Peptide exchange (MHC class I binding score, peptide exchange yield)",++++ (≥75% = ++++)
153 (KLVELEHTL; listed as Homo sapiens) [compound 153],"Peptide exchange (MHC class I binding score, peptide exchange yield)",+++ (≥50 = +++)
173 (RLIDIYKNV; listed as Homo sapiens) [compound 173],"Peptide exchange (MHC class I binding score, peptide exchange yield)",+++ (≥50 = +++)
134 (SLYKSFLQL; listed as Homo sapiens) [compound 134],"Peptide exchange (MHC class I binding score, peptide exchange yield)",++ (≥20% = ++)
95 (KLIDEDEPLFL; listed as Homo sapiens) [compound 95],"Peptide exchange (MHC class I binding score, peptide exchange yield)",+++ (≥50 = +++)
248 (VLMQDSRLYL; listed as Homo sapiens) [compound 248],"Peptide exchange (MHC class I binding score, peptide exchange yield)",+++ (≥50 = +++)
158 (YLDPLWHQL; listed as Homo sapiens) [compound 158],"Peptide exchange (MHC class I binding score, peptide exchange yield)",+++ (≥50 = +++)
75 (ALLDGALQL; listed as Homo sapiens) [compound 75],"Peptide exchange (MHC class I binding score, peptide exchange yield)",+++ (≥50 = +++)
191 (AAIEIFEKV; listed as Homo sapiens) [compound 191],"Peptide exchange (MHC class I binding score, peptide exchange yield)",+++ (≥50 = +++)
57 (TLYPGRFDYV; listed as Homo sapiens) [compound 57],"Peptide exchange (MHC class I binding score, peptide exchange yield)",++ (≥20% = ++)
72 (VLSTRVTNV; listed as Homo sapiens) [compound 72],"Peptide exchange (MHC class I binding score, peptide exchange yield)",++ (≥20% = ++)
214 (ALFETLIQL; listed as Homo sapiens) [compound 214],"Peptide exchange (MHC class I binding score, peptide exchange yield)",+++ (≥50 = +++)
184 (ALDSTIAHL; listed as Homo sapiens) [compound 184],"Peptide exchange (MHC class I binding score, peptide exchange yield)",++ (≥20% = ++)
119 (SLIEESEEL; listed as Homo sapiens) [compound 119],"Peptide exchange (MHC class I binding score, peptide exchange yield)",++ (≥20% = ++)
146 (VVAAHLAGA; listed as Homo sapiens) [compound 146],"Peptide exchange (MHC class I binding score, peptide exchange yield)",++ (≥20% = ++)
215 (QIADIVTSV; listed as Homo sapiens) [compound 215],"Peptide exchange (MHC class I binding score, peptide exchange yield)",++ (≥20% = ++)
276 (RMPTVLQCV; listed as Homo sapiens) [compound 276],"Peptide exchange (MHC class I binding score, peptide exchange yield)",+++ (≥50 = +++)
